Assay results reported in patent US20250320281A1.

Experiments:
Assay in all cases: cell-based or functional assay
[1] = target: HIV-1 Env of isolate MGRM-C-001 (HIV-1)
[2] = target: HIV-1 Env of isolate MGRM-C-002 (HIV-1)
[3] = target: HIV-1 Env of isolate MGRM-C-004 (HIV-1)
[4] = target: HIV-1 Env of isolate MGRM-C-005 (HIV-1)
[5] = target: HIV-1 Env of isolate MGRM-C-006 (HIV-1)
[6] = target: HIV-1 Env of isolate MGRM-C-007 (HIV-1)
[7] = target: HIV-1 Env of isolate MGRM-C-008 (HIV-1)
[8] = target: HIV-1 Env of isolate MGRM-C-009 (HIV-1)
[9] = target: HIV-1 Env of isolate MGRM-C-010 (HIV-1)
[10] = target: HIV-1 Env of isolate MGRM-C-012 (HIV-1)
[11] = target: HIV-1 Env of isolate MGRM-C-013 (HIV-1)
[12] = target: HIV-1 Env of isolate MGRM-C-014 (HIV-1)
[13] = target: HIV-1 Env of isolate MGRM-C-015 (HIV-1)
[14] = target: HIV-1 Env of isolate MGRM-C-017 (HIV-1)
[15] = target: HIV-1 Env of isolate MGRM-C-019 (HIV-1)
[16] = target: HIV-1 Env of isolate MGRM-C-020 (HIV-1)
[17] = target: HIV-1 Env of isolate MGRM-C-022 (HIV-1)
[18] = target: HIV-1 Env of isolate MGRM-C-023 (HIV-1)
[19] = target: HIV-1 Env of isolate MGRM-C-024 (HIV-1)
[20] = target: HIV-1 Env of isolate MGRM-C-025 (HIV-1)
[21] = target: HIV-1 92RW020 Env (pseudovirus) (HIV-1)
[22] = target: HIV-1 92TH021 Env (pseudovirus) (HIV-1)
[23] = target: HIV-1 92UG005 Env (pseudovirus) (HIV-1)
[24] = target: HIV-1 92UG024 Env (pseudovirus) (HIV-1)
[25] = target: HIV-1 93IN905 Env (pseudovirus) (HIV-1)
[26] = target: HIV-1 94UG103 Env (pseudovirus) (HIV-1)
[27] = target: HIV-1 APV6 Env (pseudovirus) (HIV-1)
[28] = target: HIV-1 CMU02 Env (pseudovirus) (HIV-1)
[29] = target: HIV-1 JRCSF Env (pseudovirus) (HIV-1) (UniProt P20871)
[30] = target: HIV-1 MGRM-A-010 Env (pseudovirus) (HIV-1)
[31] = target: HIV-1 MGRM-C-026 Env (pseudovirus) (HIV-1)
[32] = target: HIV-1 MGRM-C-027 Env (pseudovirus) (HIV-1)
[33] = target: HIV-1 MGRM-C-028 Env (pseudovirus) (HIV-1)
[34] = target: HIV-1 MGRM-D-018 Env (pseudovirus) (HIV-1)
[35] = target: HIV-1 NL43 Env (pseudovirus) (HIV-1)

4970_K22 (PGT-144) (antibody), sequence (VH): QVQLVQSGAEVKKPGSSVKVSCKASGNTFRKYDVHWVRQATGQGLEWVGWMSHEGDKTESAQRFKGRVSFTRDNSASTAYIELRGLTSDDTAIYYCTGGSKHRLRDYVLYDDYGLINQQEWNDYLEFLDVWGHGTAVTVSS
4970_K22 (PGT-144) (antibody), sequence (VL): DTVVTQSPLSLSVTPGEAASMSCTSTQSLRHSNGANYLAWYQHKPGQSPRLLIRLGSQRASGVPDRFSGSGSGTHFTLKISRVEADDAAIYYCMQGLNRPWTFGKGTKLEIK
4993_K13 (PGT-141) (antibody), sequence (VH): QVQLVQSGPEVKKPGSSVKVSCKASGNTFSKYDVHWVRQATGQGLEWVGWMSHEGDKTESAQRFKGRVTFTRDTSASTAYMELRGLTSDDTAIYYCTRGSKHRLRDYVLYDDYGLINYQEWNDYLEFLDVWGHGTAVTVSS
4993_K13 (PGT-141) (antibody), sequence (VL): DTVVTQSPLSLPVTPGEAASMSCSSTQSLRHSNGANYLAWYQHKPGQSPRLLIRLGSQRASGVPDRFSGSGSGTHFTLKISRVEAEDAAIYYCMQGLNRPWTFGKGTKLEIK
4980_N08 (PGT-143) (antibody), sequence (VH): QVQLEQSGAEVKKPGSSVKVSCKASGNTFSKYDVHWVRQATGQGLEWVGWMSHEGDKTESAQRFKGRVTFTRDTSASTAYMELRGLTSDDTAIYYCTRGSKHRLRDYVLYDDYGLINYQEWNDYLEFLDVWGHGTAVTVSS
4980_N08 (PGT-143) (antibody), sequence (VL): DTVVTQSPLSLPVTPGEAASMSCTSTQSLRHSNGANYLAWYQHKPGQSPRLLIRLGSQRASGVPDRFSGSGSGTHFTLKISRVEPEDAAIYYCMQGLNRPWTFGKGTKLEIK
1443_C16 (PG16) (TCN-116) (antibody), sequence (VH): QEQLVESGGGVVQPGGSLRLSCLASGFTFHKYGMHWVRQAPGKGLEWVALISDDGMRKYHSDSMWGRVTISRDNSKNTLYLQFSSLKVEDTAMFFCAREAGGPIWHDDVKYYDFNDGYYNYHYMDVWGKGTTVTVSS
1443_C16 (PG16) (TCN-116) (antibody), sequence (VL): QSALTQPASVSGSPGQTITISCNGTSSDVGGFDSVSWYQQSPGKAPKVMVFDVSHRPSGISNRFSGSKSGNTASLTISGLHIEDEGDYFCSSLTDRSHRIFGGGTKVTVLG
4995_E20 (PGT-142) (antibody), sequence (VH): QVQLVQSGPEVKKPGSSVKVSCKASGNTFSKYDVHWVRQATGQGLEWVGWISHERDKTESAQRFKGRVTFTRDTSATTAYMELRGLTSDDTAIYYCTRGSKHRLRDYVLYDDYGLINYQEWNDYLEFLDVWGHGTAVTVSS

Substance	IC50 [1] [µg/mL]	IC50 [2] [µg/mL]	IC50 [3] [µg/mL]	IC50 [4] [µg/mL]	IC50 [5] [µg/mL]	IC50 [6] [µg/mL]	IC50 [7] [µg/mL]	IC50 [8] [µg/mL]	IC50 [9] [µg/mL]	IC50 [10] [µg/mL]	IC50 [11] [µg/mL]	IC50 [12] [µg/mL]	IC50 [13] [µg/mL]	IC50 [14] [µg/mL]	IC50 [15] [µg/mL]	IC50 [16] [µg/mL]	IC50 [17] [µg/mL]	IC50 [18] [µg/mL]	IC50 [19] [µg/mL]	IC50 [20] [µg/mL]	other results
2G12 (antibody)	2.93	> 50	> 50	> 50	> 50	> 50	> 50	> 50	> 50	> 50	> 50	> 50	1.75	> 50	> 50	18.6	> 50	> 50	> 50	> 50	–
1443_C16 (PG16) (TCN-116) (antibody)	16.8	28.3	5.09	2.55	2.62	0.05	> 50	> 50	> 50	0.48	> 50	> 50	0.26	1.8	0.002	> 50	0.25	0.09	0.04	0.04	–
2F5 (antibody)	> 50	44.7	> 50	> 50	> 50	> 50	> 50	> 50	> 50	> 50	18.4	> 50	> 50	> 50	> 50	> 50	> 50	> 50	> 50	> 50	–
4E10 (antibody)	5.66	18.2	24.2	16.4	4.94	5.84	2.97	0.56	11	0.44	2.1	2.48	2.52	1.47	3.49	2.8	5.71	1.95	22.6	5.58	–
4993_K13 (PGT-141) (antibody)	–	–	–	–	–	–	–	–	–	–	–	–	–	–	–	–	–	–	–	–	neutralization IC50 (pseudovirus) [21]: > 10 µg/mL; IC50 (neutralizing activity, pseudovirus) [22]: 0.0019 µg/mL; IC50 (neutralizing activity, pseudovirus) [23]: > 10 µg/mL; IC50 (neutralizing activity, pseudovirus) [24]: > 10 µg/mL; IC50 (neutralizing activity, pseudovirus) [25]: 0.0016 µg/mL; IC50 (neutralizing activity, pseudovirus) [26]: > 10 µg/mL; IC50 (neutralizing activity, pseudovirus) [27]: 5.08 µg/mL; IC50 (neutralizing activity, pseudovirus) [28]: > 10 µg/mL; IC50 (neutralizing activity, pseudovirus) [29]: 0.0047 µg/mL; IC50 (neutralizing activity, pseudovirus) [30]: 0.0563 µg/mL; IC50 (neutralizing activity, pseudovirus) [31]: > 10 µg/mL; IC50 (neutralizing activity, pseudovirus) [32]: 0.822 µg/mL; IC50 (neutralizing activity, pseudovirus) [33]: 2.35 µg/mL; IC50 (neutralizing activity, pseudovirus) [34]: > 10 µg/mL; IC50 (neutralizing activity, pseudovirus) [35]: 0.856 µg/mL
4980_N08 (PGT-143) (antibody)	–	–	–	–	–	–	–	–	–	–	–	–	–	–	–	–	–	–	–	–	neutralization IC50 (pseudovirus) [21]: > 10 µg/mL; IC50 (neutralizing activity, pseudovirus) [22]: 0.0028 µg/mL; IC50 (neutralizing activity, pseudovirus) [23]: > 10 µg/mL; IC50 (neutralizing activity, pseudovirus) [24]: > 10 µg/mL; IC50 (neutralizing activity, pseudovirus) [25]: 0.0021 µg/mL; IC50 (neutralizing activity, pseudovirus) [26]: > 10 µg/mL; IC50 (neutralizing activity, pseudovirus) [27]: 4.43 µg/mL; IC50 (neutralizing activity, pseudovirus) [28]: > 10 µg/mL; IC50 (neutralizing activity, pseudovirus) [29]: 0.0064 µg/mL; IC50 (neutralizing activity, pseudovirus) [30]: 0.0657 µg/mL; IC50 (neutralizing activity, pseudovirus) [31]: > 10 µg/mL; IC50 (neutralizing activity, pseudovirus) [32]: 0.505 µg/mL; IC50 (neutralizing activity, pseudovirus) [33]: 1.82 µg/mL; IC50 (neutralizing activity, pseudovirus) [34]: > 10 µg/mL; IC50 (neutralizing activity, pseudovirus) [35]: 0.585 µg/mL
4995_E20 (PGT-142) (antibody)	–	–	–	–	–	–	–	–	–	–	–	–	–	–	–	–	–	–	–	–	neutralization IC50 (pseudovirus) [21]: > 10 µg/mL; IC50 (neutralizing activity, pseudovirus) [22]: 0.0022 µg/mL; IC50 (neutralizing activity, pseudovirus) [23]: > 10 µg/mL; IC50 (neutralizing activity, pseudovirus) [24]: > 10 µg/mL; IC50 (neutralizing activity, pseudovirus) [25]: 0.0017 µg/mL; IC50 (neutralizing activity, pseudovirus) [26]: > 10 µg/mL; IC50 (neutralizing activity, pseudovirus) [27]: 5.42 µg/mL; IC50 (neutralizing activity, pseudovirus) [28]: > 10 µg/mL; IC50 (neutralizing activity, pseudovirus) [29]: 0.0085 µg/mL; IC50 (neutralizing activity, pseudovirus) [30]: 0.0578 µg/mL; IC50 (neutralizing activity, pseudovirus) [31]: > 10 µg/mL; IC50 (neutralizing activity, pseudovirus) [32]: 0.272 µg/mL; IC50 (neutralizing activity, pseudovirus) [33]: 1.23 µg/mL; IC50 (neutralizing activity, pseudovirus) [34]: > 10 µg/mL; IC50 (neutralizing activity, pseudovirus) [35]: 0.712 µg/mL
VRC01 (antibody)	–	–	–	–	–	–	–	–	–	–	–	–	–	–	–	–	–	–	–	–	IC50, pseudovirus neutralization [3]: 1.01 µg/mL; IC50 (µg/mL), pseudovirus neutralization [12]: > 50 µg/mL; IC50 (µg/mL), pseudovirus neutralization [13]: 1.57 µg/mL; IC50 (µg/mL), pseudovirus neutralization [14]: 0.366 µg/mL; IC50 (µg/mL), pseudovirus neutralization [15]: 1.13 µg/mL; IC50 (µg/mL), pseudovirus neutralization [16]: 0.396 µg/mL; IC50 (µg/mL), pseudovirus neutralization [17]: 13 µg/mL; IC50 (µg/mL), pseudovirus neutralization [18]: 0.077 µg/mL; IC50 (µg/mL), pseudovirus neutralization [19]: 3.4 µg/mL; IC50 (µg/mL), pseudovirus neutralization [20]: 2.36 µg/mL
b12 (antibody)	> 50	> 50	5.46	2.66	> 50	> 50	1.51	> 50	> 50	> 50	> 50	> 50	13.3	> 50	> 50	> 50	> 50	13.9	> 50	> 50	–
1495_C14 (PGC14) (antibody)	> 50	> 50	> 50	> 50	> 50	> 50	> 50	> 50	> 50	> 50	> 50	> 50	> 50	> 50	12	> 50	> 50	> 50	> 50	> 50	–
4970_K22 (PGT-144) (antibody)	–	–	–	–	–	–	–	–	–	–	–	–	–	–	–	–	–	–	–	–	neutralization IC50 (pseudovirus) [21]: > 10 µg/mL; IC50 (neutralizing activity, pseudovirus) [22]: 0.0934 µg/mL; IC50 (neutralizing activity, pseudovirus) [23]: > 10 µg/mL; IC50 (neutralizing activity, pseudovirus) [24]: > 10 µg/mL; IC50 (neutralizing activity, pseudovirus) [25]: 0.158 µg/mL; IC50 (neutralizing activity, pseudovirus) [26]: > 10 µg/mL; IC50 (neutralizing activity, pseudovirus) [27]: > 10 µg/mL; IC50 (neutralizing activity, pseudovirus) [28]: > 10 µg/mL; IC50 (neutralizing activity, pseudovirus) [29]: 0.128 µg/mL; IC50 (neutralizing activity, pseudovirus) [30]: 4.02 µg/mL; IC50 (neutralizing activity, pseudovirus) [31]: > 10 µg/mL; IC50 (neutralizing activity, pseudovirus) [32]: > 10 µg/mL; IC50 (neutralizing activity, pseudovirus) [33]: > 10 µg/mL; IC50 (neutralizing activity, pseudovirus) [34]: > 10 µg/mL; IC50 (neutralizing activity, pseudovirus) [35]: > 10 µg/mL
1496_C09 (PG9) (TCN-109) (antibody)	–	–	1.18	2.98	0.23	0.09	–	–	12.4	0.24	–	0.64	0.5	1.52	0.01	–	0.19	0.51	0.22	0.17	neutralization IC50 (pseudovirus) [21]: 0.161 µg/mL; neutralization IC50 (pseudovirus) [22]: 0.103 µg/mL; neutralization IC50 (pseudovirus) [24]: 1.91 µg/mL; neutralization IC50 (pseudovirus) [25]: 0.048 µg/mL; neutralization IC50 (pseudovirus) [26]: 0.31 µg/mL; neutralization IC50 (pseudovirus) [27]: 0.214 µg/mL; neutralization IC50 (pseudovirus) [29]: 0.0048 µg/mL; neutralization IC50 (pseudovirus) [30]: 0.0375 µg/mL; neutralization IC50 (pseudovirus) [31]: 0.113 µg/mL; neutralization IC50 (pseudovirus) [32]: 2.45 µg/mL; neutralization IC50 (pseudovirus) [33]: 0.121 µg/mL; neutralization IC50 (pseudovirus) [34]: 2.04 µg/mL; neutralization IC50 (pseudovirus) [35]: 0.687 µg/mL
